Experimental data reported in US20240376218A1.
One block for each binder: values may come before it.

Legend:
[1] = biological target: human CCR8 tagged with ProLink (human); experiment: cell-based or functional assay
[2] = biological target: human CCR8 (human) (UniProt P51685); experiment: cell-based or functional assay
[3] = biological target: cynomolgus CCR8 (cynomolgus); experiment: FACS, CHO cells expressing cynomolgus CCR8, signal at saturation
Sequence of cynomolgus CCR8 (cynomolgus) (O97665 other isoform, or with tags, fused parts or gaps): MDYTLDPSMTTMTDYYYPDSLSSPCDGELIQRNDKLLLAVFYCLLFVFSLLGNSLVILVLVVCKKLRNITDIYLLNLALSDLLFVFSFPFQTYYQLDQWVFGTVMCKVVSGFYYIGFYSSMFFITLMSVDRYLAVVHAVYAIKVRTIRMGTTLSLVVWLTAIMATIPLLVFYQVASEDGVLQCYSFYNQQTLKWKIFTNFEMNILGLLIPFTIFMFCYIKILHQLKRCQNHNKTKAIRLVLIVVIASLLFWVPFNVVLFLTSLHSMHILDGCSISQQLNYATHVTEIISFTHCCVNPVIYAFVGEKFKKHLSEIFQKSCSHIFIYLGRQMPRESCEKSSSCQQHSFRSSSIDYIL

IC50 in nM for inhibition of CCL1 induced β-arrestin signaling (DiscoverX assay), CHO with hCCR8 [1]: 0.78 nM | Ca flux assay IC50 (nM), block of signaling induced by CCL1 at 60 ng/ml; CHO cells expressing human CCR8 [2]: 1.3 nM | Ca flux assay Span ratio (from max to min), block of signaling induced by CCL1 at 60 ng/ml; CHO cells expressing human CCR8 [2]: 996 | Internalization [fold isotype], HuT78 cells, BODIPY FL-labelled antibody [2]: 22 fold isotype
B1: 433H (antibody, from another filing, V domains shown)
VH: EVQLVETGGGLVQPKGSLRLSCAASGFPFNTFAMNWVRQAPGKGLEWLARIRSKSNNYATYYADSVKDRFTISRDDSRRMLYLLMNNVKFEDTAIYYCVRGKENNYGYAMDYWGQGTSVTVSS
VL: DIVMTQAAPSVPVTPGESVSISCRSSQSLLHSNGNTYLYWFLQRPGQSPQLLIYRMSNLASGVPDRFSGSGSGTAFTLRISRVEAEDVGVYYCMQHLEYPFTFGIGTKLELKR

MFI [3]: < 1000
B2: Clone 433H (ICOS, BD) (antibody, from another filing, V domains shown)
VH: B1 VH
VL: B1 VL
